Columns and labels:
[1] = target: T1, IL-1 receptor on EL-4 membranes (Mus musculus, UniProt P13504); assay: IL-1 radioreceptor competition binding assay
T1 construct: incubated at varying concentrations with EL-4 membranes; endogenous in cells; host or cells: EL-4 cell membranes
T1 sequence (P13504 20-576): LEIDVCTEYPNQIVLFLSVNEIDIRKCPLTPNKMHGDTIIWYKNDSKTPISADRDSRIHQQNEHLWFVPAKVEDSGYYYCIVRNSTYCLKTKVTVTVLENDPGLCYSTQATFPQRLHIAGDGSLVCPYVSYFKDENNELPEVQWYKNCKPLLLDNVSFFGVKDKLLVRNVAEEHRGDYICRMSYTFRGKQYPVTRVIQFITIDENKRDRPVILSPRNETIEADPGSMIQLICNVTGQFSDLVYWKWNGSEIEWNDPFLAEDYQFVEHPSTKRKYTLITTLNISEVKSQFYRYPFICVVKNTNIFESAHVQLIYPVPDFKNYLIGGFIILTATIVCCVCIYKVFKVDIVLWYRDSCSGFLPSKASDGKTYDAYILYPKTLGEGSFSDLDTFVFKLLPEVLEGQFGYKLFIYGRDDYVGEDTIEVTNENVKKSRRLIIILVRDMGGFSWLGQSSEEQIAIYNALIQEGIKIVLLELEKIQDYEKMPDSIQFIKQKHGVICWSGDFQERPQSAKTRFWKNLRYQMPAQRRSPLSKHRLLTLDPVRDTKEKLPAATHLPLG
Protocol: Pegylated IL-1ra was purified from the reaction mixture using hydrophobic exchange chromatography (Bio-Rad; HRLC MP7 HlC). A linear gradient with decreasing salt concentrations from 0.43 to 0.0M (NH4)2 SO4 in 50 mM sodium phosphate pH 7.0 in 20 minutes was used to separate pegylated IL-1ra and unmodified IL-1ra. Aliquots of fractions were evaluated by SDS-PAGE and pooled fractions were assayed in an IL-1 radioreceptor competition binding assay. [Kilian et al. J. Immunol., 136, 4509, (1986)]. Briefly, IL-1ra and PEG-IL-1ra were incubated at varying concentrations with EL-4 membranes for 30 min at 37° C. The [^125 I]IL-1 alpha was then added and the incubation continued for 30 min. The assay was terminated by vacuum filtration and the collection of cell bound [^125 I]IL-1 on filter plates. The concentration of IL-1ra or PEG-IL-1ra that inhibits binding of [^125l]IL- 1 by 50% (IC50) was determined graphically. […] The pegylated IL-1ra mixture retained its ability-to bind to the IL-1 receptor on EL-4 membranes within a factor 2 to 3 fold relative to the unmodified II1-1ra.

[2] = test system: rIL-1alpha induction of interleukin-6; assay: Inhibition of rIL-1alpha induction of interleukin-6 in mice (pharmacodynamics); format: in vivo
Protocol: The pharmacodynamics of IL-1ra protein was evaluated in vivo by the ability of the IL-1ra to inhibit rIL-1alpha induction of interleukin-6. Serum from mice treated with rIL-1alpha contain high levels of IL-6, [McIntosh et al., Immunol. 143: 162, (1989)]. The administration of unmodified IL-1ra together with IL-1alpha (0 hr time point) inhibits the induction of IL-6. This test system was used to compare the pharmacodynamic properties of unmodified and PEG IL-1ra. […] Three hours later, serum samples were collected. IL-6 levels (units) were determined using a modification of an IL-6 assay that has been previously described [Van Snick et al., Proc. Natl. Acad. Sci. USA 83:9679, (1986)]. In the IL.-6 assay, B9 hybridoma cells were treated with two fold serial dilutions of the test sera in 96-well microtiter plates. Following a 3 day incubation at 37° C. in a humidified atmosphere comprised of 5% CO2 and 95% air, the wells were pulsed with 0.5 uCi of tritiated thymidine and incubated for an additional 18 hr. The cells were then harvested onto glass fiber filters and the level of tritiated thymidine incorporation was determined by scintillation counting. IL-6 activity is expressed as U/ml. IL-6 units are defined as the inverse of the serum dilution which produces half-maximal tritiated thymidine incorporation compared to a reference standard.

[3] = Pharmacokinetic profile: serum IL-1ra levels in mice after subcutaneous administration; format: in vivo; conditions: for Serum Concentration of IL-1ra: Table D2 (pegylated as in Example 6a), 100 ug s.c.; for Serum Level of IL-1ra: Table D4 (reagent of Example 11a); for Serum IL-1ra: Table D5 (reagent of Example 18a)
Protocol: To determine the pharmacokinetic profile of PEG-IL-1ra species, C57BF/6 mice were administered 100 ug of […] or pegylated IL-1ra species subcutaneously. Serum samples were collected after 1, 2, 3, 4 and 6 hours from mice that received unmodified IL-1ra and after 2, 4, 8, 10, and 24 hours from mice that received PEG-IL-1ra. The serum levels were determined in the EL4 membrane binding assay described in Example 6.

## IL-1ra: Interleukin-1 receptor antagonist, unmodified; apparent molecular weight 19 kD by SDS-PAGE
[1]; Example 6, Table VI: IL-1ra conjugated with reagent of Example 5, label = apparent molecular weight
  IC50: 2.0 ng/mL
[1]; Example 6A, Table VII: IL-1ra conjugated with reagent of Example 5a, label = apparent molecular weight (kD)
  IC50: 1.6 ng/mL
[1]; Example 12, Table XII: IL-1ra pegylated with reagent of Example 11, label = apparent molecular weight (kD)
  IC50: 2.0 ng/mL
[1]; Example 12A, Table XIII: IL-1ra pegylated with reagent of Example 11a, label = apparent molecular weight (kD)
  IC50: 0.8 ng/mL
[1]; Example 19, Table XIV: IL-1ra pegylated with reagent of Example 18, label = apparent molecular weight (kD)
  IC50: 2.0 ng/mL
[1]; Example 19A, Table XV: IL-1ra pegylated with reagent of Example 18a, label = apparent molecular weight (kD)
  IC50: 1.5 ng/mL
[1]; Example 26, Table XVIII: IL-1ra pegylated with reagent of Example 23, label = apparent molecular weight (kD)
  IC50: 2.0 ng/mL
[1]; Example 29, Table XX: IL-1ra pegylated with reagent of Example 28, label = molecular weight (kD)
  IC50: 1.4 ng/mL
[1]; Example 32, Table XXII: rIL-1ra conjugated with reagent of Example 31, label = apparent molecular weight (kD)
  IC50: 1.5 ng/mL
[1]; Example 38, Table XXV: rIL-1ra conjugated with the reagent described in Example 35 (so in the source), label = apparent molecular weight (kD)
  IC50: 1.0 ng/mL
[1]; IC50 of IL-1ra in this assay (general statement)
  IC50: 1 to 2.0 ng/mL
[2]; Example 12, within 6 hours of administration
  inhibition of the IL-1 response: less than 50%
[2]; Table D1 (reagent of Example 5), 200 ug s.c. 0 hr prior to 0.2 ug rIL-1 alpha, IL-1 alone 28852 U/ml
  IL-6: 772 Units/ml
[2]; Table D1 (reagent of Example 5), 200 ug s.c. 6 hr prior to 0.2 ug rIL-1 alpha, IL-1 alone 28852 U/ml
  IL-6: 8361 Units/ml
[2]; Table D1 (reagent of Example 5), 200 ug s.c. 24 hr prior to 0.2 ug rIL-1 alpha, IL-1 alone 28852 U/ml
  IL-6: 22525 Units/ml
[2]; Table D1 (reagent of Example 5), 200 ug s.c. 48 hr prior to 0.2 ug rIL-1 alpha, IL-1 alone 28852 U/ml
  IL-6: 18485 Units/ml
[2]; Table D1 (reagent of Example 5), 200 ug s.c. 72 hr prior to 0.2 ug rIL-1 alpha, IL-1 alone 28852 U/ml
  IL-6: 13220 Units/ml
[2]; Table D3 (reagent of Example 11), 0 hr prior to IL-1 administration, IL-1 alone 27283 u/ml
  IL-6: 4789 Units/ml
[2]; Table D3 (reagent of Example 11), 6 hr prior to IL-1 administration, IL-1 alone 27283 u/ml
  IL-6: 15324 Units/ml
[2]; Table D3 (reagent of Example 11), 24 hr prior to IL-1 administration, IL-1 alone 27283 u/ml
  IL-6: 24841 Units/ml
[2]; Table D3 (reagent of Example 11), 48 hr prior to IL-1 administration, IL-1 alone 27283 u/ml
  IL-6: 16348 Units/ml
[2]; Table D3 (reagent of Example 11), 72 hr prior to IL-1 administration, IL-1 alone 27283 u/ml
  IL-6: 12067 Units/ml
[2]; Table D6 (reagent of Example 18), 0 hr prior to 0.05 ug rIL-1 alpha, IL-1 alone 9203 units/ml
  IL-6: 521 Units/ml
[2]; Table D6 (reagent of Example 18), 6 hr prior to 0.05 ug rIL-1 alpha, IL-1 alone 9203 units/ml
  IL-6: 2334 Units/ml
[2]; Table D6 (reagent of Example 18), 24 hr prior to 0.05 ug rIL-1 alpha, IL-1 alone 9203 units/ml
  IL-6: 13486 Units/ml
[2]; Table D6 (reagent of Example 18), 48 hr prior to 0.05 ug rIL-1 alpha, IL-1 alone 9203 units/ml
  IL-6: 16577 Units/ml
[2]; Table D6 (reagent of Example 18), 72 hr prior to 0.05 ug rIL-1 alpha, IL-1 alone 9203 units/ml
  IL-6: 12800 Units/ml
[3]; 1 hr after administration
  Serum Concentration of IL-1ra: 400
  Serum Level of IL-1ra: 220 ng/mL
  Serum IL-1ra: 580 ng/mL
[3]; 2 hr after administration
  Serum Concentration of IL-1ra: 130
  Serum Level of IL-1ra: 33 ng/mL
  Serum IL-1ra: 75 ng/mL
[3]; 4 hr after administration
  Serum Concentration of IL-1ra: 15
  Serum Level of IL-1ra: 5.3 ng/mL
  Serum IL-1ra: 30 ng/mL
[3]; 6 hr after administration
  Serum Concentration of IL-1ra: 16
  Serum Level of IL-1ra: 1.5 ng/mL
  Serum IL-1ra: 8 ng/mL
[3]; time not given, line between 2 and 4 hr
  Serum Concentration of IL-1ra: 40
[3]; 3 hr after administration
  Serum Level of IL-1ra: 13 ng/mL
  Serum IL-1ra: 30 ng/mL

Source: patent US5559213A, “Polyethylene-protein conjugates” (Hoffmann-La Roche Inc., priority 1995, dated 1996)
